Experimental data reported in publication PMC3542282, “P. falciparum cpn20 Is a Bona Fide Co-Chaperonin That Can Replace GroES in E. coli” (PLoS ONE, 2013).

Key:
GroEL [1] = molecular target: T1, GroEL (E. coli, UniProt P0A6F5 1-548)
[2] = molecular target: P. falciparum cpn20 (P. falciparum); test: AUC; sedimentation equilibrium, 12,000 rpm, 20°C, 20 mM Tris-HCl pH 7.4, 200 mM NaCl, read at 280 nm after 10, 12 and 14 hrs; with sedimentation velocity at 35,000 rpm, 0.5 mg/ml
GroEL (E. coli) = GroEL (E. coli) (UniProt P0A6F5)
[3] = molecular target: the molecule itself; test: AUC; sedimentation equilibrium, 12,000 rpm, 20°C, 20 mM Tris-HCl pH 7.4, 200 mM NaCl, read at 280 nm after 10, 12 and 14 hrs; with sedimentation velocity at 35,000 rpm, 0.5 mg/ml
GroEL [4] = molecular target: T1, GroEL; test: cell-based or functional assay

How did the protomer ratio of co-chaperonin to GroEL required for half maximal refolding yield of urea-denatured MDH (10 µM GroEL, 0.16 to 20 µM co-chaperonin, 30 minutes) (co-chaperonin to GroEL protomer ratio) (GroEL [1]) turn out when “GroES (from UniProt P0A6F9 1-97) (natural protein)” was run?
The protomer ratio of co-chaperonin to GroEL required for half maximal refolding yield of urea-denatured MDH (10 µM GroEL, 0.16 to 20 µM co-chaperonin, 30 minutes) (co-chaperonin to GroEL protomer ratio) was 0.125.

Which results are given for P. falciparum cpn20 (natural protein)?
stoichiometry N (subunits in the oligomer) [2]: 4; protomer ratio of co-chaperonin to GroEL required for half maximal refolding yield of urea-denatured MDH (10 µM GroEL, 0.16 to 20 µM co-chaperonin, 30 minutes) (co-chaperonin to GroEL protomer ratio) (GroEL (E. coli)): 0.125

B1: A. thaliana cpn20 (natural protein, UniProt O65282 51-253, looked up)
chain: AASVVAPKYTSIKPLGDRVLVKIKEAEEKTLGGILLPSTAQSKPQGGEVVAVGEGRTIGKNKIDITVPTGAQIIYSKYAGTEVEFNDVKHLILKEDDIVGILETEDIKDLKPLNDRVFIKVAEAEEKTAGGLLLTETTKEKPSIGTVIAVGPGSLDEEGKITPLPVSTGSTVLYSKYAGNDFKGKDGSNYIALRASDVMAILS
notes: cpn20 (20 kDa double-domain co-chaperonin of the chloroplast) from A. thaliana, At5g20720; probably the mature protein without the transit peptide (predicted tetramer 90 kDa); also called At-cpn20; At-Cpn20; source: bacterial expression, purified as previously described [23]
Which “stoichiometry N” value [3] does the source give for B1 here?
The value was 4 subunits in the oligomer.

What about the “protomer ratio of co-chaperonin to GroEL required for half maximal refolding yield of urea-denatured MDH (10 µM GroEL, 0.16 to 20 µM co-chaperonin, 30 minutes)” value (GroEL [4]) of the same molecule?
Its value is ~0.125 co-chaperonin to GroEL protomer ratio.
